The chains are these.
B1: PSMGFR minus 10 amino acids from the C-terminus (peptide)
peptide: GTINVHDVETQFNQYKTEAASRYNLTISDVSVSDV
notes: also called C-10; C-10 PSMGFR

Experiment [1] addresses MUC1-41TR (MUC1 with an extracellular domain truncated after 41 tandem repeats) (Homo sapiens (Human)) (UniProt P15941). Briefly: FACS on HCT-MUC1-41TR cells.
In experiment [2] the target is T1, dimeric NME1 (human, UniProt P15531 1-152, limits assumed).
T1 construct: used as a dimer; also called dimeric NM23-H1; NM23-H1 dimers
T1 sequence (P15531 whole entry): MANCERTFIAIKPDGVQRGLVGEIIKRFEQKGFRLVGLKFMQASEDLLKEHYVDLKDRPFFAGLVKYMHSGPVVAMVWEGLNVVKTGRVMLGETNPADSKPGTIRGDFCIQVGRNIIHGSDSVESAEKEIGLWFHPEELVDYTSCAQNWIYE
Description: ELISA on immobilized peptide.

The target of experiment [3] is T2, NME7-AB (human, UniProt Q9Y5B8 92-376).
T2 construct: also called NM23-H7
T2 sequence: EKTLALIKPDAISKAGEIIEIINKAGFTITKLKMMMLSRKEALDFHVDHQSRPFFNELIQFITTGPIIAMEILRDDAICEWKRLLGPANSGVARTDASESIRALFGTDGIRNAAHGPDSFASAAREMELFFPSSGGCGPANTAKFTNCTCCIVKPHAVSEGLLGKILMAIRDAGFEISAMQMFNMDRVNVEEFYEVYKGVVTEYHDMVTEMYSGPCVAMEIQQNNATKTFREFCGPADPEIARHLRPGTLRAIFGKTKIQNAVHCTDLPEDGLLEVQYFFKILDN
Briefly: ELISA on immobilized peptide.

Experiment [4] addresses B1. Briefly: ELISA on immobilized N-10 and C-10 peptides.
The target of experiment [5] is T3, PSMGFR peptide (Primary Sequence of the MUC1 Growth Factor Receptor).
T3 construct: synthetic peptide, immobilized on ELISA plates or attached to beads; also called MUC1* peptide; synthetic MUC1* extra cellular domain peptide
T3 peptide: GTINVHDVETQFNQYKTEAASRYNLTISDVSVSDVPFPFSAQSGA
Description: ELISA on immobilized PSMGFR, N-10 and C-10 peptides. The method, then: FIGS. 22A-22C show graphs of ELISAs wherein the assay plate surface was immobilized with either PSMGFR peptide, PSMGFR minus 10 amino acids from the N-terminus or minus 10 amino acids from the C-terminus. The MN-C3 antibody variants were then assayed for binding to the various MUC1* peptides. A) Purified mouse monoclonal MN-C3 antibody; B) Impure humanized MN-C3 antibody; and C) the humanized MN-C3 scFv-Fc. ELISAs show binding to the PSMGFR peptide as well as to certain deletion peptides.

Experiment [6] addresses T4, PSMGFR minus 10 amino acids from the N-terminus.
T4 construct: also called N-10; N-10 PSMGFR
T4 peptide: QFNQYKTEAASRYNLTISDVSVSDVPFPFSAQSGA
Description: selection criteria, FIGS. 3A-3C named. The method, then:
(§1) FIGS. 3A-3C show results of competitive ELISA assays. The PSMGFR MUC1* peptide is immobilized on the plate and dimeric NM23-H1, aka NME1, is added either alone or after the MN-E6 antibody has been added (A). The same experiment was performed wherein NM23-H7, NME7-AB, is added alone or after MN-E6 has been added (B). […] In a similar experiment (C), PSMGFR or PSMGFR minus 10 amino acids from the N-terminus, aka N-10, is immobilized on the plate. Dimeric NM23-H1 is then added. Anti-MUC1* antibodies MN-E6, MN-C2, MN-C3 or MN-C8 are then tested for their ability to compete off the NM23-H1.

The target in experiment [7] is T3, PSMGFR peptide (Primary Sequence of the …). Description: competitive ELISA on immobilized PSMGFR or N-10 peptide. The method, then: as §1
For experiment [8] the target is unchanged. Briefly: ELISA, surface coated with PSMGFR peptide or a control peptide. The method, then:
Humanized MN-C2 scFv is then incubated with the surface, washed and detected according to standard methods.

Experiment [9] addresses T5, MUC1-41TR (MUC1 with an extracellular domain truncated after 41 tandem repeats) (Homo sapiens (Human), UniProt P15941 24-1255).
T5 construct: only minimally cleaved to MUC1*; also called HCT-MUC1-41TR; HCT-MUC1-18
Briefly: CAR T co-culture, photographs; no T cell induced clustering. The method, then: FIGS. 75A-75P show photographs of a CAR T co-culture assay in which the targeting antibody fragment of the CAR is huMNC2scFv wherein CAR44 has a CD8 transmembrane domain, followed by 41BB-3zeta and CAR50 has a CD4 transmembrane domain, followed by 41BB-3zeta. […] The HCT-MUC1-41TR cancer cells were also incubated with conditioned media from cells transfected with MMP9 or ADAM17 before co-culture with the CAR T cells. Conditioned media of the MMP9 or ADAM17 expressing cells were also incubated with APMA which is an activator of those cleavage enzymes. The images shown are an overlay of the 4× bright field image and the fluorescent image of the same showing cancer cells dyed with a red CMTMR lipophilic dye. FIGS. 75A, 75E, 75I, 75M show photographs of cells co-cultured with untransduced human T cells. FIGS. 75B, 75F, 75J, 75N show photographs of cells co-cultured with human T cells transduced with anti-MUC1* CAR44 at an MOI of 10. FIGS. 75C, 75G, 75K, 75O show photographs of cells co-cultured with human T cells transduced with anti-MUC1* CAR50 at an MOI of 10. FIGS. 75D, 75H, 75L, 75P show photographs of cells co-cultured with human T cells transduced with anti-MUC1* CAR44 at an MOI of 50, which increases transduction efficiency. […] There is no T cell induced clustering and the number of cancer cells has not decreased. […]

The target in experiment [10] is T3, PSMGFR peptide (Primary Sequence of the …). Briefly: ELISA on PSMGFR peptide. The text has this:
FIGS. 21A-21B show an ELISA graph of several anti-MUC1* scFv-Fc fusion proteins wherein the Fc region has been eliminated or mutated. Shown are hu MN-E6 scFv-Fc-wt, hu MN-E6 scFv-Fc-Y407R, hu MN-E6 scFv-Fc-hingeless, and hu MN-E6 scFv-Fc-Y407R-hingeless. All mutants bind to the PSMGFR peptide of the MUC1* extracellular domain (A). An ELISA graph of several anti-MUC1* scFv-Fc fusion proteins wherein the Fc region is either wild type or mutated. Shown are hu MN-E6 scFv-Fc-wt, hu MN-E6 scFv-Fc-hingeless, and hu MN-C3 scFv-Fc is shown (B). All bind to the PSMGFR peptide of the MUC1* extracellular domain.

Ten molecules from patent publication US20200390870A1 (MINERVA BIOTECHNOLOGIES, published 2020) can be followed below.

T5 sequence (P15941 other isoform, or with tags, fused parts or gaps limits assumed): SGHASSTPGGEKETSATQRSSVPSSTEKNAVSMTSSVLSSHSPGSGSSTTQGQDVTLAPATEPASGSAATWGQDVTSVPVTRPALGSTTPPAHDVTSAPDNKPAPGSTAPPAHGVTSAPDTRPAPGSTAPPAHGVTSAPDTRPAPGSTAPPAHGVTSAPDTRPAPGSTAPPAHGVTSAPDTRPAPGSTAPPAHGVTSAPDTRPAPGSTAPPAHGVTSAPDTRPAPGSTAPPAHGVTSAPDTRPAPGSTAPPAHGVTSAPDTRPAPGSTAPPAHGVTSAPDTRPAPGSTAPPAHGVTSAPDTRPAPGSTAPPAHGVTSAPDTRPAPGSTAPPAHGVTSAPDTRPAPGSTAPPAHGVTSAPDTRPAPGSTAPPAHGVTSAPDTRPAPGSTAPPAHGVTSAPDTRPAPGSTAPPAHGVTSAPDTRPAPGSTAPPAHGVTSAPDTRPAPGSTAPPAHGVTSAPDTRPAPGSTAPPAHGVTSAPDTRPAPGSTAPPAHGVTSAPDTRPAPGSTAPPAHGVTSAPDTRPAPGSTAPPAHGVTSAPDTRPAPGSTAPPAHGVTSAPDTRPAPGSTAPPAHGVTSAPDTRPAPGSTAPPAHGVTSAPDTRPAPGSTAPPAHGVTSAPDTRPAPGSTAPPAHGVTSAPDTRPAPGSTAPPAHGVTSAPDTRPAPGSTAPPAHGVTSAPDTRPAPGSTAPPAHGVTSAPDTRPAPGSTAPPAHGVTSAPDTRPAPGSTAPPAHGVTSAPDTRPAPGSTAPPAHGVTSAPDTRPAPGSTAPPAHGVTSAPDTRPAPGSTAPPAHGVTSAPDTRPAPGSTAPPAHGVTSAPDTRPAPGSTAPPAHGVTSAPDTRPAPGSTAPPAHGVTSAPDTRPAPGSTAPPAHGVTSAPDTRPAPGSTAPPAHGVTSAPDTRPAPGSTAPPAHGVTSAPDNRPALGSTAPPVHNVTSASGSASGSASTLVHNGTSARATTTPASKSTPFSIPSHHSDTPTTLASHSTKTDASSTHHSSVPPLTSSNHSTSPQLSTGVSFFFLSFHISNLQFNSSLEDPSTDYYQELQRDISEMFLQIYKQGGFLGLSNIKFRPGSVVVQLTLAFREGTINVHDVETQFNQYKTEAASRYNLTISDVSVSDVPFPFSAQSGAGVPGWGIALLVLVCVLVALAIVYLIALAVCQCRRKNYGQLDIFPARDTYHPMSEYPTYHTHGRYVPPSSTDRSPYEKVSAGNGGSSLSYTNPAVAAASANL
Sequence of MUC1-41TR (MUC1 with an extracellular domain truncated after 41 tandem repeats) (Homo sapiens (Human)) (P15941 other isoform, or with tags, fused parts or gaps limits assumed): as above

With VU4H5 (antibody), in experiment [1], the percent of cells positive was found to be 95%. For the molecule B1, the binding result in [2] and in experiment [3] was “no binding” each time.

B2: mouse monoclonal antibody MN-C3 (antibody, V domains shown)
VH: QVQLQQSGPELVRPGVSVKISCKGSGYRFTDYAMNWVKQSHAKSLEWIGVISTFSGNTNFNQKFKGKATMTVDKSSSTAYMELARLTSEDSAMYYCARSDYYGPYFDYWGQGTTLTVSS
VL: DVLMTQTPLSLPVSLGDQASISCRSSQTIVHSNGNTYLEWYLQKPGQSPKLLIYKVSNRFSGVPDRFSGSGSGTDFTLKINRVEAEDLGVYYCFQGSHVPFTFGSGTKLEIK
notes: mouse monoclonal; also called Min-C3
Regarding B2, the binding result in experiment [4] and in experiment [5] was “binds” in each case.

B3: mouse monoclonal antibody MN-E6 (antibody, V domains shown)
VH: EVKVVESGGDLVKPGGSLKLSCVVSGFTFSRYGMSWVRQTPGKRLEWVATISGGGTYIYYPDSVKGRFTISRDNAKNTLYLQMSSLKSEDTAMYHCTRDNYGRNYDYGMDYWGQGTSVTVSS
VL: QIVLTQSPAIMSASPGEEVTLTCSATSSVSYIHWFQQRPGTSPKLWIYSTSNLASGVPVRFSGSGYGTSYSLTISRMEAEDAATYYCQQRSSSPFTFGSGTKLEIK
notes: mouse monoclonal; also called Min-E6
On to B3, for which the binding result in experiment [6] and in [7] was “binds” throughout.

B4: humanized MN-C2 scFv (scFv, V domains shown)
VH: EVQLVESGGGLVKPGGSLRLSCAASGFTFSGYAMSWVRQAPGKGLEWVSTISSGGTYIYYPDSVKGRFTISRDNAKNSLYLQMNSLRAEDTAVYYCARLGGDNYYEYFDVWGKGTTVTVSS
VL: DIVLTQSPASLAVSPGQRATITCRASKSVSTSGYSYMHWYQQKPGQPPKLLIYLASNLESGVPARFSGSGSGTDFTLTINPVEANDTANYYCQHSRELPFTFGGGTKVEIKR
notes: several humanized MN-C2 single chain proteins were generated; the one in the assays is not identified; also called huMN-C2 scFv; hMN-C2 scFv; not shown: 6x His tag, detected in the flow cytometry assay
For B4, the EC50 in experiment [8] was approximately 0.333 µM.

B5: CAR50 (MNC2 scFv, CD4 transmembrane domain, 41BB-3zeta) (other)
chain: EVQLVESGGGLVKPGGSLRLSCAASGFTFSGYAMSWVRQAPGKGLEWVSTISSGGTYIYYPDSVKGRFTISRDNAKNSLYLQMNSLRAEDTAVYYCARLGGDNYYEYFDVWGKGTTVTVSSGGGGSGGGGSGGGGSDIVLTQSPASLAVSPGQRATITCRASKSVSTSGYSYMHWYQQKPGQPPKLLIYLASNLESGVPARFSGSGSGTDFTLTINPVEANDTANYYCQHSRELPFTFGGGTKVEIKRTSGQVLLESNIKVLPTWSTPVQPMALIVLGGVAGLLLFIGLGIFFKRGRKKLLYIFKQPFMRPVQTTQEEDGCSCRFPEEEEGGCELRVKFSRSADAPAYKQGQNQLYNELNLGRREEYDVLDKRRGRDPEMGGKPRRKNPQEGLYNELQKDKMAEAYSEIGMKGERRRGKGHDGLYQGLSTATKDTYDALHMQALPPR
notes: chimeric antigen receptor on transduced human T cells; also called huMNC2-CAR50; huMNC2-scFv-CAR50
Turning to B5, the binding result in experiment [9] is listed as “no binding”.

B6: CAR44 huMNC2-CD8-4-1BB-CD3z (other)
chain: EVQLVESGGGLVKPGGSLRLSCAASGFTFSGYAMSWVRQAPGKGLEWVSTISSGGTYIYYPDSVKGRFTISRDNAKNSLYLQMNSLRAEDTAVYYCARLGGDNYYEYFDVWGKGTTVTVSSGGGGSGGGGSGGGGSDIVLTQSPASLAVSPGQRATITCRASKSVSTSGYSYMHWYQQKPGQPPKLLIYLASNLESGVPARFSGSGSGTDFTLTINPVEANDTANYYCQHSRELPFTFGGGTKVEIKRTTTTPAPRPPTPAPTIASQPLSLRPEACRPAAGGAVHTRGLDFACDIYIWAPLAGTCGVLLLSLVITLYCKRGRKKLLYIFKQPFMRPVQTTQEEDGCSCRFPEEEEGGCELRVKFSRSADAPAYKQGQNQLYNELNLGRREEYDVLDKRRGRDPEMGGKPRRKNPQEGLYNELQKDKMAEAYSEIGMKGERRRGKGHDGLYQGLSTATKDTYDALHMQALPPR
notes: also called huMNC2-CAR44; huMNC2-scFv-CAR44
As for B6, in experiment [9], the binding result is on record as “no binding”.

B7: humanized MN-E6 scFv (scFv, V domains shown, not shown: small tags and cut ends)
VH: EVQLVESGGGLVKPGGSLRLSCAASGFTFSRYGMSWVRQAPGKRLEWVSTISGGGTYIYYPDSVKGRFTISRDNAKNTLYLQMNSLRAEDTAVYYCTRDNYGRNYDYGMDYWGQGTLVTVSS
VL: EIVLTQSPATLSLSPGERATLTCSATSSVSYIHWYQQRPGQSPRLLIYSTSNLASGIPARFSGSGSGSDYTLTISSLEPEDFAVYYCQQRSSSPFTFGSGTKVEIK
notes: several humanized MN-E6 single chain proteins were generated; the one in the assays is not identified; also called hu MN-E6 scFv
Regarding B7, the binding result in experiment [10] is listed as “binds”.

B8: humanized MN-C3 antibody (antibody, V domains shown)
VH: QVQLVQSGAEVKKPGASVKVSCKASGYTFTDYAMNWVRQAPGQGLEWMGVISTFSGNTNFNQKFKGRVTMTTDTSTSTAYMELRSLRSDDTAVYYCARSDYYGPYFDYWGQGTTLTVSS
VL: DIVMTQTPLSLSVTPGQPASISCRSSQTIVHSNGNTYLEWYLQKPGQSPQLLIYKVSNRFSGVPDRFSGSGSGTDFTLKISRVEAEDVGVYYCFQGSHVPFTFGGGTKVEIKR
notes: tested impure; also called Impure humanized MN-C3 antibody
Take B8: in [5], the binding result was “binds”.

B9: mouse monoclonal antibody MN-C2 (antibody, V domains shown)
VH: EVQLEESGGGLVKPGGSLKLSCAASGFTFSGYAMSWVRQTPEKRLEWVATISSGGTYIYYPDSVKGRFTISRDNAKNTLYLQMSSLRSEDTAMYYCARLGGDNYYEYFDVWGAGTTVTVSS
VL: DIVITQSTASLGVSLGQRATISCRASKSVSTSGYSYMHWYQQRPGQPPKLLIYLASNLESGVPARFSGSGSGTDFTLNIHPVEEEDAATYYCQHSRELPFTFGGGTKLEIKR
notes: mouse monoclonal; also called Min-C2
Take B9: the binding result in experiment [6] and in experiment [7] was “binds” in each case.
